To fix the notation:
B1: Zinc finger MYM-type protein 6, residues 427 to 504; numbered along this chain, O95789 (parent)
chain: KLKCQHCNHLFATKPELLFYKGKMFLFCGKNCSDEYKKKNKVVAMCDYCKLQKIIKETVRFSGVDKPFCSEVCKFLSA

± gives the uncertainty stated by the source.

In this data set the parent is B1. Briefly: abundance fitness (aPCA) (normalised: wild type 0, dead -1); higher = more abundant; growth selection in yeast, the domain comes from the species named. To be noted: Homo sapiens.
Turning to KLKCQHCNHLFATKQELLFYKGKMFLFCGKNCSDEYKKKNKVVAMCDYCKLQKIIKETVRFSGVDKPFCSEVCKFLSA, the abundance fitness is -0.126 ± 0.049.
On to KLKCQHCNHLFATKLELLFYKGKMFLFCGKNCSDEYKKKNKVVAMCDYCKLQKIIKETVRFSGVDKPFCSEVCKFLSA, for which the abundance fitness is -0.483 ± 0.05.
In the case of KLKCQHCNHLFATKGELLFYKGKMFLFCGKNCSDEYKKKNKVVAMCDYCKLQKIIKETVRFSGVDKPFCSEVCKFLSA it was -0.163 ± 0.029; in that of KLKCQHCNHLFATKTELLFYKGKMFLFCGKNCSDEYKKKNKVVAMCDYCKLQKIIKETVRFSGVDKPFCSEVCKFLSA, -0.132 ± 0.045.
With KLKCQHCNHLFATKPELAFYKGKMFLFCGKNCSDEYKKKNKVVAMCDYCKLQKIIKETVRFSGVDKPFCSEVCKFLSA, the abundance fitness was -0.031 ± 0.036.
In the case of KLKCQHCNHLFATKPENLFYKGKMFLFCGKNCSDEYKKKNKVVAMCDYCKLQKIIKETVRFSGVDKPFCSEVCKFLSA it was 0.19 ± 0.38; in that of KLKCQHCNHLFATKPEMLFYKGKMFLFCGKNCSDEYKKKNKVVAMCDYCKLQKIIKETVRFSGVDKPFCSEVCKFLSA, 0.061 ± 0.054; in that of KLKCQHCNHLFATKPEFLFYKGKMFLFCGKNCSDEYKKKNKVVAMCDYCKLQKIIKETVRFSGVDKPFCSEVCKFLSA, -0.168 ± 0.083.
In the case of KLKCQHCNHLFATKPEQLFYKGKMFLFCGKNCSDEYKKKNKVVAMCDYCKLQKIIKETVRFSGVDKPFCSEVCKFLSA it was 0.156 ± 0.054; in that of KLKCQHCNHLFATKPEYLFYKGKMFLFCGKNCSDEYKKKNKVVAMCDYCKLQKIIKETVRFSGVDKPFCSEVCKFLSA, -0.081 ± 0.072.
In the case of KLKCQHCNHLFATKPEPLFYKGKMFLFCGKNCSDEYKKKNKVVAMCDYCKLQKIIKETVRFSGVDKPFCSEVCKFLSA, the abundance fitness is 0.024 ± 0.038.
Take KLKCQHCNHLFATKPESLFYKGKMFLFCGKNCSDEYKKKNKVVAMCDYCKLQKIIKETVRFSGVDKPFCSEVCKFLSA: the abundance fitness amounted to 0.117 ± 0.04.
As to KLKCQHCNHLFATKPEELFYKGKMFLFCGKNCSDEYKKKNKVVAMCDYCKLQKIIKETVRFSGVDKPFCSEVCKFLSA, the abundance fitness stood at 0.166 ± 0.037.
With KLKCQHCNHLFATKPEKLFYKGKMFLFCGKNCSDEYKKKNKVVAMCDYCKLQKIIKETVRFSGVDKPFCSEVCKFLSA, the abundance fitness stood at 0.102 ± 0.046.
Turning to KLKCQHCNHLFATKPETLFYKGKMFLFCGKNCSDEYKKKNKVVAMCDYCKLQKIIKETVRFSGVDKPFCSEVCKFLSA, the abundance fitness stood at 0.086 ± 0.041.
In the case of KLKCQHCNHLFATKPEWLFYKGKMFLFCGKNCSDEYKKKNKVVAMCDYCKLQKIIKETVRFSGVDKPFCSEVCKFLSA it was 0.065 ± 0.03; in that of KLKCQHCNHLFATKPEGLFYKGKMFLFCGKNCSDEYKKKNKVVAMCDYCKLQKIIKETVRFSGVDKPFCSEVCKFLSA, -0.042 ± 0.03; in that of KLKCQHCNHLFATKPECLFYKGKMFLFCGKNCSDEYKKKNKVVAMCDYCKLQKIIKETVRFSGVDKPFCSEVCKFLSA, -0.011 ± 0.046.
Regarding KLKCQHCNHLFATKPEALFYKGKMFLFCGKNCSDEYKKKNKVVAMCDYCKLQKIIKETVRFSGVDKPFCSEVCKFLSA, the abundance fitness was -0.003 ± 0.032.
In the case of KLKCQHCNHLFATKPEDLFYKGKMFLFCGKNCSDEYKKKNKVVAMCDYCKLQKIIKETVRFSGVDKPFCSEVCKFLSA it was -0.044 ± 0.051; in that of KLKCQHCNHLFATWPELLFYKGKMFLFCGKNCSDEYKKKNKVVAMCDYCKLQKIIKETVRFSGVDKPFCSEVCKFLSA, -0.408 ± 0.056.
To KLKCQHCNHLFATSPELLFYKGKMFLFCGKNCSDEYKKKNKVVAMCDYCKLQKIIKETVRFSGVDKPFCSEVCKFLSA belongs -0.085 ± 0.035; to KLKCQHCNHLFATEPELLFYKGKMFLFCGKNCSDEYKKKNKVVAMCDYCKLQKIIKETVRFSGVDKPFCSEVCKFLSA, -0.053 ± 0.033; to KLKCQHCNHLFATVPELLFYKGKMFLFCGKNCSDEYKKKNKVVAMCDYCKLQKIIKETVRFSGVDKPFCSEVCKFLSA, -0.141 ± 0.033.
To KLKCQHCNHLFATLPELLFYKGKMFLFCGKNCSDEYKKKNKVVAMCDYCKLQKIIKETVRFSGVDKPFCSEVCKFLSA belongs -0.101 ± 0.033; to KLKCQHCNHLFATRPELLFYKGKMFLFCGKNCSDEYKKKNKVVAMCDYCKLQKIIKETVRFSGVDKPFCSEVCKFLSA, -0.104 ± 0.031; to KLKCQHCNHLFATDPELLFYKGKMFLFCGKNCSDEYKKKNKVVAMCDYCKLQKIIKETVRFSGVDKPFCSEVCKFLSA, -0.081 ± 0.068.
Consider KLKCQHCNHLFATYPELLFYKGKMFLFCGKNCSDEYKKKNKVVAMCDYCKLQKIIKETVRFSGVDKPFCSEVCKFLSA, for which the abundance fitness is -0.492 ± 0.11.
In the case of KLKCQHCNHLFATTPELLFYKGKMFLFCGKNCSDEYKKKNKVVAMCDYCKLQKIIKETVRFSGVDKPFCSEVCKFLSA it was -0.032 ± 0.051.
To KLKCQHCNHLFATCPELLFYKGKMFLFCGKNCSDEYKKKNKVVAMCDYCKLQKIIKETVRFSGVDKPFCSEVCKFLSA belongs -0.243 ± 0.096; to KLKCQHCNHLFATMPELLFYKGKMFLFCGKNCSDEYKKKNKVVAMCDYCKLQKIIKETVRFSGVDKPFCSEVCKFLSA, -0.287 ± 0.042; to KLKCQHCNHLFATFPELLFYKGKMFLFCGKNCSDEYKKKNKVVAMCDYCKLQKIIKETVRFSGVDKPFCSEVCKFLSA, -0.298 ± 0.046.
In the case of KLKCQHCNHLFATQPELLFYKGKMFLFCGKNCSDEYKKKNKVVAMCDYCKLQKIIKETVRFSGVDKPFCSEVCKFLSA it was -0.126 ± 0.12; in that of KLKCQHCNHLFATNPELLFYKGKMFLFCGKNCSDEYKKKNKVVAMCDYCKLQKIIKETVRFSGVDKPFCSEVCKFLSA, -0.1 ± 0.058.
Take KLKCQHCNHLFATPPELLFYKGKMFLFCGKNCSDEYKKKNKVVAMCDYCKLQKIIKETVRFSGVDKPFCSEVCKFLSA: the abundance fitness is -0.182 ± 0.043.

For the origin of these results see the Human Domainome abundance scans (Beltran et al. 2025).
